According to patent publication US20240294914A1, “COMPOSITIONS AND METHODS FOR TREATING HEPATITIS B VIRUS INFECTION” (priority 2021, published 2024):
Strand notation (5' to 3'): a small letter for the sugar, then the base; units joined by * are phosphorothioate-linked, units joined directly phosphodiester-linked; [ ] holds rarer units or linkages, { } end groups; capitals alone tell only the bases. m = 2'-O-methyl; r = 2'-OH (RNA)

B1: cas12b-127: guide RNA SEQ ID NO: 390 (nucleic acid)
guide: mG*mU*mU*rCrUrGrUrCrUrUrUrUrGrGrUrCrArGrGrArCrArArCrCrGrUrCrUrArGrCrUrArUrArArGrUrGrCrUrGrCrArGrGrGrUrGrUrGrArGrArArArCrUrCrCrUrArUrUrGrCrUrGrGrArCrGrArUrGrUrCrUrCrUrUrArCrGrArGrGrCrArUrUrArGrCrArCrArCrArCrArGrArArArGrGrCrCrUrUrGrUrArArG
B2: ABE-133: guide RNA SEQ ID NO: 5516 (nucleic acid)
guide: GAAGATGAGGCATAGCAGCAGTTTTAGAGCTAGAAATAGCAAGTTAAAATAAGGCTAGTCCGTTATCAACTTGAAAAAGTGGCACCGAGTCGGTGCTTTT
modifications: chemistry not fully specified
B3: ABE-41: guide RNA SEQ ID NO: 5513 (nucleic acid)
guide: AGAAGATGAGGCATAGCAGCGTTTTAGAGCTAGAAATAGCAAGTTAAAATAAGGCTAGTCCGTTATCAACTTGAAAAAGTGGCACCGAGTCGGTGCTTTT
modifications: chemistry not fully specified
B4: PolyA-NGC1: guide RNA SEQ ID NO: 5499 (nucleic acid)
guide: GACCCTTATAAAGAATTTGGGTTTTAGAGCTAGAAATAGCAAGTTAAAATAAGGCTAGTCCGTTATCAACTTGAAAAAGTGGCACCGAGTCGGTGCTTTT
modifications: chemistry not fully specified
B5: cas12b-5: guide RNA SEQ ID NO: 380 (nucleic acid)
guide: mG*mU*mU*rCrUrGrUrCrUrUrUrUrGrGrUrCrArGrGrArCrArArCrCrGrUrCrUrArGrCrUrArUrArArGrUrGrCrUrGrCrArGrGrGrUrGrUrGrArGrArArArCrUrCrCrUrArUrUrGrCrUrGrGrArCrGrArUrGrUrCrUrCrUrUrArCrGrArGrGrCrArUrUrArGrCrArCrUrCrGrCrUrGrGrArUrGrUrGrUrCrUrGrCrGrGrC
B6: PolyA-NGC2: guide RNA SEQ ID NO: 5500 (nucleic acid)
guide: TTTATAAGGGTCGATGTCCAGTTTTAGAGCTAGAAATAGCAAGTTAAAATAAGGCTAGTCCGTTATCAACTTGAAAAAGTGGCACCGAGTCGGTGCTTTT
modifications: chemistry not fully specified
B7: cas12b-152: guide RNA SEQ ID NO: 5523 (nucleic acid)
guide: GUUCUGUCUUUUGGUCAGGACAACCGUCUAGCUAUAAGUGCUGCAGGGUGUGAGAAACUCCUAUUGCUGGACGAUGUCUCUUACGAGGCAUUAGCACAGAGAAGUCCACCACGAGUC
modifications: listed as RNA, chemistry not fully specified
B8: cas12b-122b: guide RNA SEQ ID NO: 391 (nucleic acid)
guide: GTTCTGTCTTTTGGTCAGGACAACCGTCTAGCTATAAGTGCTGCAGGGTGTGAGAAACTCCTATTGCTGGACGATGTCTCTTACGAGGCATTAGCACCACGCACGCGCTGATGGCCC
modifications: sugars from the 5' end m3 r114, linkages s3 o113 (s phosphorothioate, o phosphodiester), T or U not given here
B9: cas12b-4: guide RNA SEQ ID NO: 379 (nucleic acid)
guide: mG*mU*mU*rCrUrGrUrCrUrUrUrUrGrGrUrCrArGrGrArCrArArCrCrGrUrCrUrArGrCrUrArUrArArGrUrGrCrUrGrCrArGrGrGrUrGrUrGrArGrArArArCrUrCrCrUrArUrUrGrCrUrGrGrArCrGrArUrGrUrCrUrCrUrUrArCrGrArGrGrCrArUrUrArGrCrArCrArCrArArGrArArUrCrCrUrCrArCrArArUrArCrC
B10: cas12b-124: guide RNA SEQ ID NO: 389 (nucleic acid)
guide: mG*mU*mU*rCrUrGrUrCrUrUrUrUrGrGrUrCrArGrGrArCrArArCrCrGrUrCrUrArGrCrUrArUrArArGrUrGrCrUrGrCrArGrGrGrUrGrUrGrArGrArArArCrUrCrCrUrArUrUrGrCrUrGrGrArCrGrArUrGrUrCrUrCrUrUrArCrGrArGrGrCrArUrUrArGrCrArCrCrCrGrGrGrCrArArCrGrGrGrGrUrArArArGrGrU
B11: cas12b-11: guide RNA SEQ ID NO: 381 (nucleic acid)
guide: mG*mU*mU*rCrUrGrUrCrUrUrUrUrGrGrUrCrArGrGrArCrArArCrCrGrUrCrUrArGrCrUrArUrArArGrUrGrCrUrGrCrArGrGrGrUrGrUrGrArGrArArArCrUrCrCrUrArUrUrGrCrUrGrGrArCrGrArUrGrUrCrUrCrUrUrArCrGrArGrGrCrArUrUrArGrCrArCrCrArCrCrUrGrUrArUrUrCrCrCrArUrCrCrCrArU

Key:
[1] = system: HBV genome in HEK293T cells transduced with a lentiviral vector; assay: Base editing efficiency in Hek293-lentiHBV system (PCR amplicons sequenced on MiSeq); assay type: cell-based, Hepatitis B virus; set-up: Editing Efficiency 2 (%): concentration or dose not given beside the values; settings: for Average Editing Efficiency (%): average of 3, base editor Cas12b-ABE; for Average Editing Efficiency (%) / Editing Efficiency 1 (%) / Editing Efficiency 2 (%) / Editing Efficiency 3 (%): plasmid transfection, four days; for Editing Efficiency 1 (%): replicate 1, base editor Cas12b-ABE; for Editing Efficiency 2 (%): replicate 2, base editor Cas12b-ABE; for Editing Efficiency 3 (%): replicate 3, base editor Cas12b-ABE
HBV cccDNA = assay: Base editing of HBV cccDNA in primary human hepatocytes (HBV-PHH); assay type: cell-based, Hepatitis B virus; settings: HBV-PHH system
Excerpt: (§1) Base editor systems comparing guide RNAs evaluated in Example 1 were subsequently tested for anti-viral and editing efficacy using the Hepatitis B virus-primary human hepatocyte (HBV-PHH) system. Cells were transfected with the guide RNAs and mRNAs encoding the base editor as described in Example 1. […] Guide RNAs ABE-133, MSPbeam94, and ABE-85 were associated with a 70-80% reduction of HBV DNA as compared to controls. The guide RNAs PolyA-NGC1 and PolyA-NGC2 were associated with high editing followed by 90% efficacy in reduction of HbeAg.
Having identified gRNA37 and gRNA40 as effective gRNAs, the antiviral efficacy of a base editor system containing BE4, gRNA37 and gRNA40 (i.e., multiplexing gRNAs) was evaluated, FIGS. 8-10. It was determined that the base editor system multiplexed with the two gRNAs was associated with a reduction of HBV viral parameters in HepG2-NTCP cells, see FIG. 9. […] For the evaluation of editing of cccDNA, the cccDNA was enriched via Hirt extraction and ExoI/ExoIII nuclease treatment to remove rcDNA (relaxed circular DNA). Throughout the Examples provided herein, editing of cccDNA was evaluated using next generation sequencing completed using cccDNA enriched in this way.
(§2) The design of the experiments is described schematically in FIG. 14. Primary human hepatocyte (PHH) cells were infected with HBV at day 0. At days 4 and 11, the cells were transfected with mRNA encoding BE4 and with gRNA37 and gRNA40. Measurements of HBV DNA were taken over time, and measurements of HBsAg, HBeAG, HBV total DNA, 3.5 kb RNA, and cccDNA editing were taken at day 25. The experiments were carried out using a PHH co-culture system available from PhoenixBio. The PHH co-culture system maintained hepatocyte differentiation and metabolic activity for over 30 days. The HBV infection in the cells was persistent and a cccDNA level was maintained.
(§3) The design of the experiments is described schematically in FIG. 18. Primary human hepatocyte (PHH) cells were infected with HBV at day 0, at day 4 an 8-day. Treatment with lamivudine commenced (which included a 3-day pretreatment period within the 8-day total), and cells were transfected with mRNA encoding BE4 and the gRNAs gRNA37 and gRNA40 at days 7 and 14. HBV DNA levels were measured over time, and additional HBV markers were measured at day 21.
(§4) Primary hepatocytes (PHH) co-cultures infected with HBV were used to test antiviral efficacy of base editing systems. Primary hepatocyte co-culture (PHH) infected with HBV virus is a clinically relevant system for assessing anti-viral activity of base editing systems. The base editing reagents (mRNA encoding a base editor(s) and synthetic gRNA) were transfected via lipofection twice over the course of two weeks. The first transfection was performed about 3, 4, or 7 days after infection (days post infection (dpi)). Not being bound by theory, this 3-to-7-day period ensured that the cccDNA was completely formed at the time of the transfection. The second transfection was at about 7, 10, 11, or 14 days after infection. Extracellular parameters (e.g., HBsAg, HBeAg, and HBV DNA) were monitored over the course of the experiment (including the end of the experiment) and intracellular parameters (HBV DNA, viral RNA, and editing) were measured at the end of the experiment. Cells were lysed at the termination of the experiment (e.g., at 15, 17, 21, or 25 days).
(§5) Transfection details: RNA format, 800 ng total RNA per well in a 24 well plate (600 ng base editor-encoding mRNA+200 ng gRNA) transfected via lipofection (lipofectamin messengerMax, thermofisher Scientific) according to the vendor protocol.

Hepatitis B virus = assay: Antiviral efficacy in HBV-infected primary human hepatocytes (HBV-PHH): HBsAg, HBeAg, HBV DNA, 3.5 kb RNA, rebound; assay type: cell-based; settings: HBV-PHH system, guide RNA + mRNA encoding base editor
Excerpt: as §1
The HBV-PHH system for studying the Hepatitis B virus is described, for example, by Winer, et al., “Long-term hepatitis B infection in a scalable hepatic co-culture system,” Nat. Commun. 8:125 (2017) and by Zhou, et al. “Long-term maintenance of human fetal hepatocytes and prolonged susceptibility to HBV infection by co-culture with non-parenchymal cells,” J. Virol Methods, 195:185-93 (2014); and is provided commercially by ImQuest BioSciences (imquestbio.com/programs/virology/hbv/)).
as §2, §3, §4, §5

Molecule	Average Editing Efficiency (%) [1]	Editing Efficiency 1 (%) [1]	Editing Efficiency 2 (%) [1]	Editing Efficiency 3 (%) [1]	cccDNA Editing in PHH A > G % (HBV cccDNA)	HBV markers relative to the no treatment control (cccDNA editing and/or viral replication) (Hepatitis B virus)	other results
B1	42.25%	50.16%	37.40%	39.21%	–	–	–
B2	–	–	–	–	76.0%	robust reduction in all HBV markers	% Editing average ([1]; base editor VRQR-ABE): 65%
B3	–	–	–	–	56.0%	robust reduction in all HBV markers	% Editing average ([1]; base editor Abe7.10): 58%
B4	–	–	–	–	60.4%	robust reduction in all HBV markers	editing (HBV cccDNA): high editing; efficacy in reduction of HbeAg (Hepatitis B virus): 90%
B5	0.54%	0.12%	0.36%	1.14%	–	–	–
B6	–	–	–	–	62.9%	robust reduction in all HBV markers	editing (HBV cccDNA): high editing; efficacy in reduction of HbeAg (Hepatitis B virus): 90%
B7	–	–	–	–	–	robust reduction in all HBV markers	% Editing average ([1]; base editor Cas12b-ABE): 54%
B8	5.51%	8.22%	3.91%	4.39%	–	–	–
B9	20.00%	14.70%	26.37%	18.93%	–	–	–
B10	17.47%	29.50%	11.78%	11.15%	–	–	–
B11	58.03%	44.34%	60.28%	69.47%	–	robust reduction in all HBV markers	–
